This test concerns the target purified recombinant cathepsin A (CTSA) (human) (UniProt P10619).

Sequence of purified recombinant cathepsin A (CTSA) (human) (P10619 29-480): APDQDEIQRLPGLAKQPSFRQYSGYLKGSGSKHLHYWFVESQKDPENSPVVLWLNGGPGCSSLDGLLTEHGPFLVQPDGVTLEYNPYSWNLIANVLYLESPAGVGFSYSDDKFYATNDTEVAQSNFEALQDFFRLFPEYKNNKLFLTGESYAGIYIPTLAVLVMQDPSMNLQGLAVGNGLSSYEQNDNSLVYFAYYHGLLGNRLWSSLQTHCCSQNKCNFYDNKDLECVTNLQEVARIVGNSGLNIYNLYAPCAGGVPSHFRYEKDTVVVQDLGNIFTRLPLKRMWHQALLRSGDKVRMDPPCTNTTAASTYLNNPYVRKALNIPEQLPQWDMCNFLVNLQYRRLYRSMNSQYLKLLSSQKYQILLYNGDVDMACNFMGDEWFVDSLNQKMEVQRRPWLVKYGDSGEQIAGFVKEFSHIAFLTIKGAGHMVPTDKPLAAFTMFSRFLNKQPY

“purified recombinant NEU1 (from UniProt Q99519 48-415) (enzyme)”: the NEU1 enzymatic activity (moles of substrate/moles of NEU1/sec) of recombinant NEU1 incubated with CTSA; fold reduction by high HS concentrations (≥0.3 mg/mL) was found to be 100 fold.

Source of the values: article PMC12352893.
